{"source": "patent US20250152742A1", "about": "“COMPOSITIONS AND METHODS FOR NEUROLOGICAL DISEASES” (Trames Bio, Inc., priority 2022, published 2025)", "molecules": {"B1": {"name": "CODA377: engineered receptor: S172D in SEQ ID NO: 33 (protein)", "chain": "MRCSPGGVWLALAASLLHVSLQGEFQRKLYKELVKNYNPLERPVANDSQPLTVYFSLSLLQIMDVDEKNQVLTTNIWLQMSWTDHYLQWNVSEYPGVKTVRFPDGQIWKPDILLYNSADERFDATFHTNVLVNSSGHCQYLPPGIFKSSCPMDLKNFPMDVQTCKLKFGSWDYGGWSLDLQMQEADISGYIPNGEWDLVGIPGKRSERFYECCKEPYPDVTFTVTMRRRMGYYLIQMYIPSLLIVILSWISFWINMDAAPARVGLGITTVLTMTTQSSGSRASLPKVSYVKAIDIWMAVCLLFVFSALLEYAAVNFVSRQHKELLRFRRKRRHHKSPMLNLFQEDEAGEGRFNFSAYGMGPACLQAKDGISVKGANNSNTTNPPPAPSKSPEEMRKLFIQRAKKIDKISRIGFPMAFLIFNMFYWIIYKIVRREDVHNQ", "modifications": "synthetic sequence of chimeric LGIC"}}, "test_system": "engineered chimeric receptor SEQ ID NO: 33 and its mutants (human α7-nAChR ligand binding domain / human GlyRα1 ion pore domain) in Lenti-X 293T cells", "test": "YFP fluorescence quenching anion reporter plate reader assay (percent quench, EC50)", "assay_type": "cell-based", "conditions": "for YFP fluorescence quenching using CNL001 (percent quench): receptor named in row; for YFP fluorescence quenching using Varenicline, 3 nM var: ligand Varenicline 3 nM; for YFP fluorescence quenching using Varenicline, 30 nM var: ligand Varenicline 30 nM; for YFP fluorescence quenching using Varenicline, 300 nM var: ligand Varenicline 300 nM; for YFP fluorescence quenching using Varenicline, 500 nM var: ligand Varenicline 500 nM; for YFP fluorescence quenching using Varenicline, 1 uM var: ligand Varenicline 1 uM", "how_it_was_run": "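Lenti-X 293T cells co-expressing an anion-quenchable YFP were transiently transfected with receptor DNA, then ligand was added in NaI-substituted buffer (pH 7.2) after 30 min at 37 °C. Fluorescence was read about 2 min; percent quench = mean of last 10 s over 15 s pre-ligand baseline.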", "data": [{"molecule": "B1", "values": [{"measurement": "YFP fluorescence quenching using CNL001 (percent quench)", "setting": "1 nM CNL001, first column so headed", "value": 67.544, "unit": "%"}, {"measurement": "YFP fluorescence quenching using CNL001 (percent quench)", "setting": "1 nM CNL001, second column so headed", "value": 74.209, "unit": "%"}, {"measurement": "YFP fluorescence quenching using TC-5619/Bradanicline (percent quench)", "setting": "1 nM brd (TC-5619/Bradanicline)", "value": 0.77, "unit": "%"}, {"measurement": "YFP fluorescence quenching using TC-5619/Bradanicline (percent quench)", "setting": "3 nM brd (TC-5619/Bradanicline)", "value": "−4.59", "unit": "%"}, {"measurement": "YFP fluorescence quenching using CNL001 (percent quench)", "setting": "10 nM CNL001, first column so headed", "value": 74.346, "unit": "%"}, {"measurement": "YFP fluorescence quenching using CNL001 (percent quench)", "setting": "10 nM CNL001, second column so headed", "value": 75.816, "unit": "%"}, {"measurement": "YFP fluorescence quenching using TC-5619/Bradanicline (percent quench)", "setting": "10 nM brd (TC-5619/Bradanicline)", "value": 0.06, "unit": "%"}, {"measurement": "YFP fluorescence quenching using TC-6683 (percent quench)", "setting": "30 nM TC-6683", "value": "−20.23", "unit": "%"}, {"measurement": "YFP fluorescence quenching using TC-5619/Bradanicline (percent quench)", "setting": "30 nM brd (TC-5619/Bradanicline)", "value": "−10.48", "unit": "%"}, {"measurement": "YFP fluorescence quenching using CNL001 (percent quench)", "setting": "50 nM CNL001, first column so headed", "value": 77.068, "unit": "%"}, {"measurement": "YFP fluorescence quenching using CNL001 (percent quench)", "setting": "50 nM CNL001, second column so headed", "value": 76.99, "unit": "%"}, {"measurement": "YFP fluorescence quenching using ABT-126 (percent quench)", "setting": "50 nM abt (ABT-126)", "value": "−1.53", "unit": "%"}, {"measurement": "YFP fluorescence quenching using CNL001 (percent quench)", "setting": "100 nM CNL001, first column so headed", "value": 79.352, "unit": "%"}, {"measurement": "YFP fluorescence quenching using CNL001 (percent quench)", "setting": "100 nM CNL001, second column so headed", "value": 77.865, "unit": "%"}, {"measurement": "YFP fluorescence quenching (percent quench)", "setting": "100 nM CNL002", "value": 59.35, "unit": "%"}, {"measurement": "YFP fluorescence quenching using ABT-126 (percent quench)", "setting": "100 nM abt (ABT-126)", "value": 18.18, "unit": "%"}, {"measurement": "YFP fluorescence quenching using AZD-0328 (percent quench)", "setting": "100 nM azd0328", "value": 65.04, "unit": "%"}, {"measurement": "YFP fluorescence quenching using TC-5619/Bradanicline (percent quench)", "setting": "100 nM brd (TC-5619/Bradanicline)", "value": 0.25, "unit": "%"}, {"measurement": "YFP fluorescence quenching using TC-6683 (percent quench)", "setting": "300 nM TC-6683", "value": "−13.94", "unit": "%"}, {"measurement": "YFP fluorescence quenching using ABT-126 (percent quench)", "setting": "300 nM abt (ABT-126)", "value": 59.15, "unit": "%"}, {"measurement": "YFP fluorescence quenching using AZD-0328 (percent quench)", "setting": "300 nM azd0328", "value": 81.73, "unit": "%"}, {"measurement": "YFP fluorescence quenching using TC-5619/Bradanicline (percent quench)", "setting": "300 nM brd (TC-5619/Bradanicline)", "value": "−10.61", "unit": "%"}, {"measurement": "YFP fluorescence quenching using CNL001 (percent quench)", "setting": "1 uM CNL001, first column so headed", "value": 80.272, "unit": "%"}, {"measurement": "YFP fluorescence quenching using CNL001 (percent quench)", "setting": "1 uM CNL001, second column so headed", "value": 79.432, "unit": "%"}, {"measurement": "YFP fluorescence quenching (percent quench)", "setting": "1 uM CNL002", "value": 79.26, "unit": "%"}, {"measurement": "YFP fluorescence quenching using ABT-126 (percent quench)", "setting": "1 uM abt (ABT-126)", "value": 72.28, "unit": "%"}, {"measurement": "YFP fluorescence quenching using TC-5619/Bradanicline (percent quench)", "setting": "1 uM brd (TC-5619/Bradanicline)", "value": 3.82, "unit": "%"}, {"measurement": "YFP fluorescence quenching using TC-6683 (percent quench)", "setting": "3 uM TC-6683", "value": "−14.17", "unit": "%"}, {"measurement": "YFP fluorescence quenching (percent quench)", "setting": "10 uM ach (acetylcholine)", "value": "−3.19", "unit": "%"}, {"measurement": "YFP fluorescence quenching (percent quench)", "setting": "30 uM CNL002", "value": 79.96, "unit": "%"}, {"measurement": "YFP fluorescence quenching using TC-6683 (percent quench)", "setting": "30 uM TC-6683", "value": 1.86, "unit": "%"}, {"measurement": "YFP fluorescence quenching using AZD-0328 (percent quench)", "setting": "30 uM azd0328", "value": 82.3, "unit": "%"}, {"measurement": "YFP fluorescence quenching using TC-6683 (percent quench)", "setting": "100 uM TC-6683", "value": 43.61, "unit": "%"}, {"measurement": "YFP fluorescence quenching (percent quench)", "setting": "100 uM ach (acetylcholine)", "value": 0.07, "unit": "%"}, {"measurement": "YFP fluorescence quenching (percent quench)", "setting": "1 mM ach (acetylcholine)", "value": 71.7, "unit": "%"}, {"measurement": "YFP fluorescence quenching (percent quench)", "setting": "3 mM ach (acetylcholine)", "value": 76.95, "unit": "%"}, {"measurement": "YFP fluorescence quenching using Facinicline, 30 nM fac", "setting": "ligand Facinicline 30 nM", "value": 4.93}, {"measurement": "YFP fluorescence quenching using Facinicline, 300 nM fac", "setting": "ligand Facinicline 300 nM", "value": 84.13}, {"measurement": "YFP fluorescence quenching using Facinicline, 10 uM fac", "setting": "ligand Facinicline 10 uM", "value": 66.96}, {"measurement": "YFP fluorescence quenching using Facinicline, 30 uM fac", "setting": "ligand Facinicline 30 uM", "value": 85.29}, {"measurement": "YFP fluorescence quenching using TC-6987, 1 uM tc6987", "setting": "ligand TC-6987 1 uM", "value": "−9.74"}, {"measurement": "YFP fluorescence quenching using TC-6987, 3 uM tc6987", "setting": "ligand TC-6987 3 uM", "value": "−14.04"}, {"measurement": "YFP fluorescence quenching using TC-6987, 5 uM tc6987", "setting": "ligand TC-6987 5 uM", "value": "−0.95"}, {"measurement": "YFP fluorescence quenching using TC-6987, 10 uM tc6987", "setting": "ligand TC-6987 10 uM", "value": "−7.41"}, {"measurement": "YFP fluorescence quenching using TC-6987, 30 uM tc6987", "setting": "ligand TC-6987 30 uM", "value": "−16.12"}, {"measurement": "YFP fluorescence quenching using TC-6987, 50 uM tc6987", "setting": "ligand TC-6987 50 uM", "value": "−12.79"}, {"measurement": "YFP fluorescence quenching using TC-6987, 100 uM tc6987", "setting": "ligand TC-6987 100 uM", "value": "−11.77"}, {"measurement": "YFP fluorescence quenching using TC-6987, 300 uM tc6987", "setting": "ligand TC-6987 300 uM", "value": "−19.68"}, {"measurement": "YFP fluorescence quenching using TC-6987, 500 uM tc6987", "setting": "ligand TC-6987 500 uM", "value": "−17.02"}, {"measurement": "YFP fluorescence quenching using Varenicline, 3 nM var", "setting": "first column", "value": "−3.433"}, {"measurement": "YFP fluorescence quenching using Varenicline, 3 nM var", "setting": "second column", "value": "−5.737"}, {"measurement": "YFP fluorescence quenching using Varenicline, 30 nM var", "setting": "first column", "value": "−5.319"}, {"measurement": "YFP fluorescence quenching using Varenicline, 30 nM var", "setting": "second column", "value": "−6.175"}, {"measurement": "YFP fluorescence quenching using Varenicline, 300 nM var", "setting": "first column", "value": "−4.135"}, {"measurement": "YFP fluorescence quenching using Varenicline, 300 nM var", "setting": "second column", "value": "−8.614"}, {"measurement": "YFP fluorescence quenching using Varenicline, 500 nM var", "setting": "first column", "value": "−6.062"}, {"measurement": "YFP fluorescence quenching using Varenicline, 500 nM var", "setting": "second column", "value": "−6.125"}, {"measurement": "YFP fluorescence quenching using Varenicline, 1 uM var", "setting": "first column", "value": "−14.134"}, {"measurement": "YFP fluorescence quenching using Varenicline, 1 uM var", "setting": "second column", "value": "−15.373"}]}]}
